Target: H3.3 G90M (pCDH, transfected) (human) (UniProt P84243)
Experiment: co-IP

Sequence of DAXX found with transfected H3 in 293T cells (Q9UER7 whole entry): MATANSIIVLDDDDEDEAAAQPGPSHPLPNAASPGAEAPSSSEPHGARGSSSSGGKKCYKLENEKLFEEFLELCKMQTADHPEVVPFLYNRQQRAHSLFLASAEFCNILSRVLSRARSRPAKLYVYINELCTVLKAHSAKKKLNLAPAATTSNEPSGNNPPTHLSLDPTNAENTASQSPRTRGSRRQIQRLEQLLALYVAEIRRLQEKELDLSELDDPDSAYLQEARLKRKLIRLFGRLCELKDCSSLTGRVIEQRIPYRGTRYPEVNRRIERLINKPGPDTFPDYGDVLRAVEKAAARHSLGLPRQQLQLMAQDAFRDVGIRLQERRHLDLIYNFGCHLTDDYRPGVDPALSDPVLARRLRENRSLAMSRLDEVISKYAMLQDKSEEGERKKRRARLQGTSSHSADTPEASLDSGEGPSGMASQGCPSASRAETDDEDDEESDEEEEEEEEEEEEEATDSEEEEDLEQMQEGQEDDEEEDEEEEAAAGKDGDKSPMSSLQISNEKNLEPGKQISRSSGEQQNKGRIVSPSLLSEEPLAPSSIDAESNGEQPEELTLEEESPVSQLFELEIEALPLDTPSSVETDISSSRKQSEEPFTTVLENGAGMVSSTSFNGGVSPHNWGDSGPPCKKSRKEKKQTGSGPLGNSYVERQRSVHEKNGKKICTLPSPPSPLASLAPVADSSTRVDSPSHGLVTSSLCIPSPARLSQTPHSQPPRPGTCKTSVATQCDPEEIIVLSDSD

- reduction of DAXX binding against wild-type H3.3: 50%
Substance: DAXX found with transfected H3 in 293T cells (from UniProt Q9UER7 1-740) (natural protein)

Reference: paper PMC4056191
